Experiments:
FcγRIIIb [1] = target: T1, FcγRIIIb (human, UniProt O75015 17-200); assay: stated in the variant's description; method not given
T1 construct: also called FcγRIIIa/b (second member)

FcγRIIIa [2] = target: T2, FcγRIIIa (human, UniProt P08637 17-208); assay: as above
T2 construct: also called FcγRIIIa/b (first member)

FcγRIIIb [3] = target: T1, FcγRIIIb; assay: stated in the variant's description; FcγR binding profile in FIG. 22A
FcγRIIIa [4] = target: T2, FcγRIIIa; assay: as above

T2 sequence (P08637 17-208 limits assumed): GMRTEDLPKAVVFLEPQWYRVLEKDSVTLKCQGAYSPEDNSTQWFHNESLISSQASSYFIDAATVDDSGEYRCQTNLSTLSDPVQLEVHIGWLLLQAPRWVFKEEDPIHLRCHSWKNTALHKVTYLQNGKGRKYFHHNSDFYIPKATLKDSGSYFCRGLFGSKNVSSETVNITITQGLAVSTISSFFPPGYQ
T1 sequence (O75015 17-200 limits assumed): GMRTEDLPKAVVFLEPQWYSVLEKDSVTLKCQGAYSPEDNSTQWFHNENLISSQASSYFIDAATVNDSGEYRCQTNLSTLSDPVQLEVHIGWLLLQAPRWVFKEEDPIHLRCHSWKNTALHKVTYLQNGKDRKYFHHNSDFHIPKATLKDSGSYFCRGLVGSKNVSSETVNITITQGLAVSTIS

Row | Binder | binding result (FcγRIIIb [1]) | binding result (FcγRIIIa [2]) | binding result (FcγRIIIb [3]) | binding result (FcγRIIIa [4])
1 | Flu1_ALIE (antibody) heavy: not shown light: DIQMTQSPSSLSASVGDRVTITCRTSQSLSSYLHWYQQKPGKAPKLLIYAASSLQSGVPSRFSGSGSGTDFTLTISSLQPEDFATYYCQQSRTFGQGTKVEIKRTVAAPSVFIFPPSDEQLKSGTASVVCLLNNFYPREAKVQWKVDNALQSGNSQESVTEQDSKDSTYSLSSTLTLSKADYEKHKVYACEVTHQGLSSPVTKSFNRGEC | binds | binds | – | –
2 | Flu1_afucosylated (antibody, also called the afucosylated antibody) heavy: not shown light: DIQMTQSPSSLSASVGDRVTITCRTSQSLSSYLHWYQQKPGKAPKLLIYAASSLQSGVPSRFSGSGSGTDFTLTISSLQPEDFATYYCQQSRTFGQGTKVEIKRTVAAPSVFIFPPSDEQLKSGTASVVCLLNNFYPREAKVQWKVDNALQSGNSQESVTEQDSKDSTYSLSSTLTLSKADYEKHKVYACEVTHQGLSSPVTKSFNRGEC | binds | binds | – | –
3 | 3C05_ALIE (antibody) heavy: not shown light: EIVLTQSPATLSLSPGERATLSCRASQSVSSYLAWYQQKPGQAPRLLIYDASKRATGIPARFSGSGSGTDFTLTISSLEPEDFAVYYCQQRSNWLTFGGGTKVELERTVAAPSVFIFPPSDEQLKSGTASVVCLLNNFYPREAKVQWKVDNALQSGNSQESVTEQDSKDSTYSLSSTLTLSKADYEKHKVYACEVTHQGLSSPVTKSFNRGEC | – | – | binds | binds
4 | 1A01_ALIE (antibody) heavy: not shown light: DIQMTQSPSSLSASIGDRVTITCRASQSIRNYLNWYQQKPGKAPKLVIYAVSNLQSGVPSRFSGSGSGTDFTLTISSLQPEDLATYYCQQSYSTLPYTFGQGTKVEIKLERADAAPTVSIFPPSSEQLTSGGASVVCFLNNFYPKDINVKWKIDGSERQNGVLNSWTDQDSKDSTYSMSSTLTLTKDEYERHNSYTCEATHKTSTSPIVKSFNRNEC | binds | binds | – | –

From patent US20220298230A1 (ROCKEFELLER UNIVERSITY, published 2022)
